Data on three molecules can be found in patent JP2005168497A (dated 2005).

Experiment [1] concerns the target T1, TRAIL-R1-hFc (ヒトTRAIL-R1の細胞外領域とヒトIgG1のFc領域とが融合したタンパク質, ALEXIS社製) (human, UniProt O00220 24-239).
T1 construct: extracellular domain; Bought (ALEXIS); not shown: human IgG1 Fc region
T1 sequence (looked up): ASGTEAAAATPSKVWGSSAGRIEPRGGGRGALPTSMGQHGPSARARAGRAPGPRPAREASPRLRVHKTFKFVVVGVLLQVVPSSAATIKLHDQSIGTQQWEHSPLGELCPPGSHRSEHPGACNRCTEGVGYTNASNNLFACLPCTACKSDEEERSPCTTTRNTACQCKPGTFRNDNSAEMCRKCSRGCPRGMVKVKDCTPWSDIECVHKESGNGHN
As to the kind of experiment: ELISA, purified antibody on plate-coated TRAIL-R1-hFc (Example 4). (In general: In an ELISA, binding on a coated surface is turned into a signal by an enzyme label.)

The target of experiment [2] is ヒトTRAIL-R2 (細胞表面の受容体; Colo205, U251, Jurkat, 正常ヒト肝実質細胞) (human, UniProt O14763 56-440). In words: cell-based or functional assay.

Positions count from the first letter of the chain named.

B1: KMTR1抗体 (ハイブリドーマKMTR1, FERM BP-8038 の産生するヒトモノクローナル抗体) (antibody, V domains shown)
VH: EVQLLESGGGLVQPGRSLRLSCAASGFTFSSYAMSWVRQAPGKGLEWVSAISGSGGSRYYADSVKGRFTISRDNSKNTLYLQMNSLRAEDTAVYYCAKESSGWFGAFDYWGQGTLVTVSS
VL: EIVLTQSPDFQSVTPKEKVTITCRASQSIGSSLHWYQQKPDQSPKLLIKYASQSFSGVPSRFSGSGSGTDFTLTINSLEAEDAAAYYCHQSSSLPITFGQGTRLEIK
notes: Human IgG, kappa light chain; Signal peptide limits are predictions, not N-terminal analysis
In the case of B1, the binding result in experiment [1] is recorded as “binds”.

B2: L-30-10抗体 (ハイブリドーマL-30-10, FERM BP-7700 / FERM BP-7769 の産生するヒト抗TRAIL-R2モノクローナル抗体) (antibody, V domains shown)
VH: QLQLQESGPGLVKPSETLSLTCTVSGGSISSRSNYWGWIRQPPGKGLEWIGNVYYRGSTYYNSSLKSRVTISVDTSKNQFSLKLSSVTVADTAVYYCARLSVAEFDYWGQGILVTVSS
VL: EIVLTQSPATLSLSPGERATLSCRASQSVSSFLAWYQQKPGQAPRLLIYDASNRATGSPARFSGSGSGTDFTLTISSLEPEDFAVYYCQQRSDWPLTFGPGTKVDIK
Consider B2, for which, in experiment [2], the “Jurkat細胞に対するLD50 (48時間)” value was 0.13 µg/mL and the “U251細胞に対するLD50 (シスプラチン4μg/ml同時添加, 48時間)” value was 0.17 µg/mL.

B3: E-11-13抗体 (ハイブリドーマE-11-13, FERM BP-7698 / FERM BP-7770 の産生するヒト抗TRAIL-R2モノクローナル抗体) (antibody, V domains shown)
VH: QLQLQESGPGLVKPSETLSLTCTVSGGSIISKSSYWGWIRQPPGKGLEWIGSIYYSGSTFYNPSLKSRVTISVDTSKNQFSLKLSSVTAADTAVYYCARLTVAEFDYWGQGTLVTVSS
VL: B2 VL with S58I, D93N
For B3, in experiment [2], the “Jurkat細胞に対するLD50 (48時間)” value amounted to 0.1 µg/mL and the “U251細胞に対するLD50 (シスプラチン4μg/ml同時添加, 48時間)” value was found to be 0.3 µg/mL.
